Experimental data published in patent publication US20260250320A1, “LIPIDATED PEPTIDE INHIBITORS OF INTERLEUKIN-23 RECEPTOR” (Janssen Pharmaceutica NV, priority 2023, published 2026).
*1 amine or outer side, *2 acyl side, *3 side chain or, on linkers, in order; H or OH if unused. Bridges are numbered along the chain shown (N, C = ends). Primed or numbered codes have the meaning given here. Where no end group is shown, it is not given here. Side-chain parts run from the residue outwards. [ ]: non-standard residue; d: D form. The star is where a group is joined. code d = side-chain group of K(d): lysine given as (2R)-2-(4-((5-amino-5-carboxypentyl)amino)-4-oxobutanamido)-3-carboxy-N,N,N-trimethylpropan-1-aminium, C[N+](C)(C)C[C@@H](CC(=O)O)NC(=O)CCC(=O)*; PEG2′ = PEG2 spacer unit (not further defined); Trp(7-Me) = Cc1cccc2c(C[C@H](N)C(=O)O)c[nH]c12; γGlu = O=C(O)[C@H](CCC(=O)[*:2])N[*:1]; 2Nal = N[C@@H](Cc1ccc2ccccc2c1)C(=O)O; AEF = NCCOc1ccc(C[C@H](N)C(=O)O)cc1; 3Pal = N[C@@H](Cc1cccnc1)C(=O)O; NMeK = CN[C@@H](CCCCN)C(=O)O; Pen = CC(C)(S)[C@H](N)C(=O)O; PEG12′ = not defined here; PEG4′ = not defined here; dAEF′ = not defined here; Thp = NC1(C(=O)O)CCOCC1; Sar = CNCC(=O)O

Key:
[1] = target: T1, interleukin-23 receptor (IL-23R) (UniProt Q5VWK5 24-629, limits assumed); assay: cell-based or functional assay
T1 sequence (looked up): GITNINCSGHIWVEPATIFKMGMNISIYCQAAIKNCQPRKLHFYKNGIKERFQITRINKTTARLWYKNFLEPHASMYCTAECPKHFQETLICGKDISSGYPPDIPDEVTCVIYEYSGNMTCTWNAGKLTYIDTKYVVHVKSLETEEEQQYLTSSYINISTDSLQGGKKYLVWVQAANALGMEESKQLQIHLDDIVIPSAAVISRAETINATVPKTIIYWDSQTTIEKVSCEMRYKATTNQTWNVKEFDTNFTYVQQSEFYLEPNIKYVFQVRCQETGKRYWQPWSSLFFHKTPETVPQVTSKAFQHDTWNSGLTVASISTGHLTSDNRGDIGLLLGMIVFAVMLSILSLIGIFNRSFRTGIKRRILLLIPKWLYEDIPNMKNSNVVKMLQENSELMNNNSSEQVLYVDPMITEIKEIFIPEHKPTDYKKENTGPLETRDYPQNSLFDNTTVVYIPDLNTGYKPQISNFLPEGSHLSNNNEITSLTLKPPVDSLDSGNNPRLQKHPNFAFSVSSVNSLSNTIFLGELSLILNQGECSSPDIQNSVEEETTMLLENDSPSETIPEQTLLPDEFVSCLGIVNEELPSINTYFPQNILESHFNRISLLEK

[2] = target: T1, interleukin-23 receptor (IL-23R); assay: cell-based or functional assay; remark: listed apart in the source

| Binder | IC50, IL23R reporter assay [1] [nM] | PBMC pSTAT3 IC50 [2] [nM] |
| --- | --- | --- |
| Ac-K[Pen]NT[Trp(7-Me)]K(Ac)[Pen][AEF][2Nal][Thp]EN[3Pal][Sar]-NH2 (disulfide 2-7 (inferred); not fully specified (residue 1); printed as MeCO-k(PEG12gEC20OH)-Pen(3)-N-T-7MeW-K(Ac)-Pen(3)-AEF-2Nal-THP-E-N-3Pya-Sar-CONH2) [SEQ ID NO: 26] | < 50 | < 0.5 |
| Ac-[dK]([PEG2′-PEG2′-γGlu-C18OH])[Pen]NT[Trp(7-Me)]K(Ac)[Pen][AEF][2Nal][Thp]EN[3Pal][NMeK](code d)-NH2 (disulfide 2-7 (inferred)) [SEQ ID NO: 42] | < 50 | < 0.5 |
| Ac-[dK]([PEG2′-PEG2′-γGlu-C18OH])[Pen]XT[Trp(7-Me)]K(Ac)[Pen][AEF][2Nal][Thp]EN[3Pal][Sar]-NH2 (disulfide 2-7 (inferred); not fully specified (residue 3); printed as MeCO-k(PEG2PEG2gEC18OH)-Pen(3)-K(d)-T-7MeW-K(Ac)-Pen(3)-AEF-2Nal-THP-E-N-3Pya-Sar-CONH2) [SEQ ID NO: 35] | < 50 | < 0.5 |
| Ac-[dR][Pen]NT[Trp(7-Me)]K(Ac)[Pen][AEF][2Nal][Thp]EN[3Pal][Sar]K([PEG12′-γGlu-C18OH])-NH2 (disulfide 2-7 (inferred)) [SEQ ID NO: 133] | < 50 | < 0.5 |
| Ac-[dR][Pen]NT[Trp(7-Me)]K(Ac)[Pen][AEF][2Nal][Thp]K([PEG4′-AcCl])N[3Pal][Sar]K([PEG2′-PEG2′-γGlu-C18OH])-NH2 (disulfide 2-7 (inferred)) [SEQ ID NO: 4] | < 50 | < 0.5 |
| XNTXXXXXXENXXK (not fully specified; MeCO-Pen(3)-N-T-7MeW-K(Ac)-Pen(3)-AEF-2Nal-THP-E-N-3Pya-Sar-K(PEG2PEG2gEC18OH)-CONH(PEG3a)) [SEQ ID NO: 150] | ≥ 500 | ≥ 5 |
| XNTXXXXXXENXXK (MeCO-Pen(3)-N-T-7MeW-K(Ac)-Pen(3)-AEF-2Nal-THP-E-N-3Pya-Sar-K(PEG2PEG2gEC18OH)-CONH2) [SEQ ID NO: 27] | < 50 | < 0.5 |
| Ac-[dR][Pen]NT[Trp(7-Me)]K(Ac)[Pen][AEF][2Nal][Thp]K([PEG2′-PEG2′-γGlu-C18OH])N[3Pal]X-NH2 (disulfide 2-7 (inferred); not fully specified (residue 14); printed as MeCO-r-Pen(3)-N-T-7MeW-K(Ac)-Pen(3)-AEF-2Nal-THP-K(PEG2PEG2gEC18OH)-N-3Pya-NMeK(d)-CONH2) [SEQ ID NO: 21] | < 50 | < 0.5 |
| Ac-[dK]([PEG2′-PEG2′-γGlu-C18OH])[Pen]NT[Trp(7-Me)]X[Pen][AEF][2Nal][Thp]EN[3Pal][Sar]-NH2 (disulfide 2-7 (inferred); not fully specified (residue 6); printed as MeCO-k(PEG2PEG2gEC18OH)-Pen(3)-N-T-7MeW-K(d)-Pen(3)-AEF-2Nal-THP-E-N-3Pya-Sar-CONH2) [SEQ ID NO: 34] | < 50 | < 0.5 |
| Ac-[dR][Pen]NT[Trp(7-Me)]K(Ac)[Pen][dAEF′][2Nal][Thp]K([PEG2′-PEG2′-γGlu-C18OH])N[3Pal][Sar]-NH2 (disulfide 2-7 (inferred); reading uncertain; also: printed as MeCO-r-Pen(3)-N-T-7MeW-K(Ac)-Pen(3)-AEF(d)-2Nal-THP-K(PEG2PEG2gEC18OH)-N-3Pya-Sar-CONH2) [SEQ ID NO: 22] | < 50 | < 0.5 |
| Ac-[dK]([PEG2′-PEG2′-γGlu-C18OH])[Pen]NT[Trp(7-Me)]K(Ac)[Pen][AEF][2Nal][Thp]XN[3Pal][Sar]-NH2 (disulfide 2-7 (inferred); not fully specified (residue 11); printed as MeCO-k(PEG2PEG2gEC18OH)-Pen(3)-N-T-7MeW-K(Ac)-Pen(3)-AEF-2Nal-THP-K(d)-N-3Pya-Sar-CONH2) [SEQ ID NO: 33] | < 50 | < 0.5 |
| Ac-[dR][Pen]XT[Trp(7-Me)]K(Ac)[Pen][AEF][2Nal][Thp]EN[3Pal][NMeK]([PEG2′-PEG2′-γGlu-C18OH])-NH2 (disulfide 2-7 (inferred); not fully specified (residue 3); printed as MeCO-r-Pen(3)-K(d)-T-7MeW-K(Ac)-Pen(3)-AEF-2Nal-THP-E-N-3Pya-NMeK(PEG2PEG2gEC18OH)-CONH2) [SEQ ID NO: 30] | < 50 | < 0.5 |
| Ac-[dR][Pen]NT[Trp(7-Me)]Q[Pen][AEF][2Nal][Thp]EN[3Pal][Sar]K([PEG2′-PEG2′-γGlu-C18OH])-NH2 (disulfide 2-7 (inferred)) [SEQ ID NO: 38] | < 50 | < 0.5 |
| XNTXXXXXXENXXK (MeCO-Pen(3)-N-T-7MeW-K(Ac)-Pen(3)-AEF-2Nal-THP-E-N-3Pya-Sar-K(PEG2NMePEG2NMegENMeC18Tetrazole)-CONH2) [SEQ ID NO: 3] | < 50 | < 0.5 |
| XNTXXXXXXENXXK (MeCO-Pen(3)-N-T-7MeW-K(Ac)-Pen(3)-AEF-2Nal-THP-E-N-3Pya-Sar-K(PEG2PEG2gEC18OH)-CON(Me)2) [SEQ ID NO: 149] | ≥ 500 | ≥ 5 |
| XNTXXXXXXENXXK (MeCO-Pen(3)-N-T-7MeW-K(Ac)-Pen(3)-AEF-2Nal-THP-E-N-3Pya-Sar-K(PEG12gEC18OH)-CONH2) [SEQ ID NO: 161] | < 50 | < 0.5 |
| [dR][Pen]NT[Trp(7-Me)]K(Ac)[Pen][AEF][2Nal][Thp]EN[3Pal][NMeK](code d)-NH2 (disulfide 2-7 (inferred); not fully specified (N-terminus); printed as HOC18gEPEG2PEG2CO-r-Pen(3)-N-T-7MeW-K(Ac)-Pen(3)-AEF-2Nal-THP-E-N-3Pya-NMeK(d)-CONH2) [SEQ ID NO: 43] | < 50 | < 0.5 |
| [dR][Pen]K(code d)T[Trp(7-Me)]K(Ac)[Pen][AEF][2Nal][Thp]EN[3Pal][Sar]-NH2 (disulfide 2-7 (inferred); not fully specified (N-terminus); printed as HOC18gEPEG2PEG2CO-r-Pen(3)-K(d)-T-7MeW-K(Ac)-Pen(3)-AEF-2Nal-THP-E-N-3Pya-Sar-CONH2) [SEQ ID NO: 47] | < 50 | < 0.5 |
| Ac-[dR][Pen]XT[Trp(7-Me)]K(Ac)[Pen][AEF][2Nal][Thp]K([PEG2′-PEG2′-γGlu-C18OH])N[3Pal][Sar]-NH2 (disulfide 2-7 (inferred); not fully specified (residue 3); printed as MeCO-r-Pen(3)-K(d)-T-7MeW-K(Ac)-Pen(3)-AEF-2Nal-THP-K(PEG2PEG2gEC18OH)-N-3Pya-Sar-CONH2) [SEQ ID NO: 37] | < 50 | < 0.5 |
| [dR][Pen]NT[Trp(7-Me)]K(code d)[Pen][AEF][2Nal][Thp]EN[3Pal][Sar]-NH2 (disulfide 2-7 (inferred); not fully specified (N-terminus); printed as HOC18gEPEG2PEG2CO-r-Pen(3)-N-T-7MeW-K(d)-Pen(3)-AEF-2Nal-THP-E-N-3Pya-Sar-CONH2) [SEQ ID NO: 46] | < 50 | < 0.5 |
| Ac-K([PEG2′-PEG2′-γGlu-C18OH])[Pen]NT[Trp(7-Me)]K(Ac)[Pen][AEF][2Nal][Thp]K(Ac)N[3Pal][Sar]-NH2 (disulfide 2-7 (inferred)) [SEQ ID NO: 39] | < 50 | < 0.5 |
| Ac-[dR][Pen]NT[Trp(7-Me)]K(Ac)[Pen][AEF][2Nal][Thp]EN[3Pal][Sar]K([PEG12′-γGlu-C20OH])-NH2 (disulfide 2-7 (inferred)) [SEQ ID NO: 134] | < 50 | < 0.5 |
